# In the RNAGym collection of RNA variant scans (doi:10.1073/pnas.2313332121):
# This sample holds only a part of the variants without activity.
# B1: TPR 5TU (parent)
# chain: GGAUCUUCUCGAUCUAACAAAAAAGACAAAUCUGCCACAAAGCUUGAGAGCAUCUUCGGAUGCAGAGGCGGCAGCCUUCGGUGGCGCGAUAGCGCCAACGUUCUCAACUAUGACACGCAAAACGCGUGCUCCGUUGAAUGGAGUUUAUCAUG
# Variants of: B1
# Test: polymerase ribozyme fitness, log enrichment relative to wild type (log ratio); higher = more active; in vitro selection for triplet polymerase activity
# Method in brief: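 For each subunit of a heterodimeric triplet polymerase ribozyme, a mutant library was built by PCR and transcribed, then taken through a single in vitro selection round in triplicate. Selection involved annealing to a biotinylated primer, the partner subunit and triplets, incubation frozen at −7 °C, gel excision of extended constructs, capture on streptavidin beads and RT-PCR. Genotypes were retained after Illumina sequencing of inputs and outputs only with ≥10 input reads and ≥1 read in each output. Fitness is defined as the logarithm of a genotype's enrichment relative to wild-type enrichment, using inverse-variance-weighted averages across replicates, with the logarithm taken to base 2.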
row,Variant,polymerase ribozyme fitness (log ratio)
1,GGAUCUUCUCGAUCUAACAAAAAAGACAAAUCUGCCACAAAGCUUGAGACCAUCUUCGGAUGCAGAGGCGGCAGCCUUCGGUGGCGUGAUAGCGCCAACGUUCUCAACUAUGACACGCAAAAAGGGUGCUCCGUUGAAUGGAGUUUAUCAUG,-3.47
2,GGAUCUUCUCGAUCUAACAAAAAAGACAAAUCUGCCACAAAGCUUGAGACCAUCUUCGGAUGCAGAGGCGGCAGUCUUCGGUGGGGCGAUAGCGCCAACGUUCUCAACUAUGACACGCAAAACGCGUGCUCCGUUGAAUGGAGUUUAUCAUG,≤ -4.2
3,GGAUCUUCUCGAUCUAACAAAAAAGACAAAUCUGCCACAAAGCUUGAGACCAUCUUCGGAUGCAGAGGCGGCAGCCUUCGGUGGCGCGAUAGGGCCAACGUUCCCAACUAUGACACGCAAAACGCGUGCUCCGUUGAAUGGAGUUUAUCAUG,≤ -4.2
4,GGAUCUUCUCGAUCUAACAAAAAAGACAAAUCUGCCACAAAGCUUGAGACCAUCUUUGCAUGCAGAGGCGGCAGCCUUCGGUGGCGCGAUAGCGCCAAGGUUCUCAACUAUGACACGCAAAACGCGUGCUCCGUUGAAUGGAGUUUAUCAUG,≤ -4.2
5,GGAUCUUCUCGAUCUAACAAAAAAGACAAAUCUGCCACAAAGCUUGAGACCAUCUUCGGAUGCAGAGGCGGCAGCCUUCGGUGGCGCGAUAGCGCCAACGUUCUCAACUAUGACACGUAAAACGCGUGCUCCGUUGAAUGGAGUUUAUCAUG,-3.01
6,GGAUCUUCUCGAUCUAACAAAAAAGACAAAUCUGCCACAAAGCUUGAGACCAUCUUCGGAUGCAGAGGCGGCAGCCUUCGGUGGCGCGAUAGCGCCAACGUUCUCAACUAUGACACGAAAAACGCGUGCUCCGUUGAAUGGAGUUUAUCAUG,-4.05
7,GGAUCUUCUCGAUCUAACAAAAAAGACAAAUCUGCCACAAAGCUUGAGACCAUCUUCGGAUGCAGAGGCGGCAGCCUUCGGUGGCGCGAUAGCGUCAACGUUCUCAACUAUGACACGCAAAACGCGUGCUCCGUUGAAUGGAGUUGAUCAUG,-3.64
8,GGAUCUUCUCGAUCUAACAAAAAAGACAAAUCUGCCACAAAGCUUGAGACCAUCUUGGGAUGCAGAGGCGGCAGCCAUCGAUGGCCCGAUAGCGCAAACGUUCUCAACUAUGACACGCAAAACGCGUGCUCCGUUGAAUGGAAUUUAUCAUG,≤ -4.2
9,GGAUCUUCUCGAUCUAACAAAAAAGACAAAUCUGCCACAAAGCUUGAGACCAUCUUCGGAUGCAGAGGCGGCAGCCUUCGGUGGCGCGAUAGCGCGAACGUUCUCAACUAUGACACGCAAAACGCGUGCUCCGUUGAAUGGAGCUUAUCAUG,≤ -4.2
10,GGAUCUUCUCGAUCUAACAAAAAAGACAAAUCUGCCACAAAGCUUGAGACCAUCUUCGGAUGCAGAGGCGGCAGCCUUCGGUGGCGCGAUAGCGGCAACGGUCUCAACUAUGACUCGGAAACCGCUUGCUCCGUUGAAUGGAGUUUAUCAUG,≤ -4.2
11,GGAUCUUCUCGAUCUAACAAAAAAGACAAAUCUGCCACAAAGCUUGAGACCAUCUUGGGAUGCAGAGGCGGCAGCCUUCGGUGGCGCGAUAGCGACAACGUUCUCAACUAUGACCCGCAAAACGCGUGCUCCGUUGAAUGGAGUUUAUCAUG,≤ -4.2
12,GGAUCUUCUCGAUCUAACAAAAAAGACAAAUCUGCCACAAAGCUUGAGACCAUCUUCGGAUGCAGAGGCGGCAGCCUUCGGUGGCGCGAUAGCGCCAACGUUCUCAACUAUGACACGGAAAACGCGUGCUCCGUUGAAUAGAGUUUAUCAUG,≤ -4.2
13,GGAUCUUCUCGAUCUAACAAAAAAGACAAAUCUGCCACAAAGCUUGAGACCAUCUUCGGAUGCAGAGGCGGCAGUCUUCGGUGGCGCGAUAGGGCCAACGUUCUCAACUAUGACGCGCAAAACGCGUGCUCCGUUGAAUGGAGUUUAUCAUG,≤ -4.2
14,GGAUCUUCUCGAUCUAACAAAAAAGACAAAUCUGCCACAAAGCUUGAGACCAUUUUCGGAUGCAGAGGCGGCAGCCUUCGGUGGCGCGAUAGCGCCAACGUUCUCAACUAUGACACGCAAAACGCGUGCUCCGUUGAAUGGAGUUUAUCAUG,-2.6
15,GGAUCUUCUCGAUCUAACAAAAAAGACAAAUCUGCCACAAAGCUUGAGACCAUCUUCGGAUGGAGAGGCGGCAGCCUUCGGUGGCGCGAUAGCGCAAACGUUCUCAACUAUGACACGUCAAACGCGUGCUCCGUUGAAUGGAGUUUAUCAUG,-0.626
16,GGAUCUUCUCGAUCUAACAAAAAAGACAAAUCUGCCACAAAGCUUGAGACCAUUUUCGGAUGCAGAGGCGGCAGCCUUCGGUGGCACGAUAGCGCCAACGUUCUCAAUUAUGACACGCAAAACGCGUGCUCCGUUGAAUGGAGUUUAUCAUG,≤ -4.2
17,GGAUCUUCUCGAUCUAACAAAAAAGACAAAUCUGCCACAAAGCUUGAGACCAUCUUCGGAUGCAGAGGCGGCAGCCUUCGGUGGCGUGAUAGCGCCAACGUUCUCAACUAUGACACGCAAAACGCGUGCUCCGUUGAAUGGAGUUUAUCAUG,-3.6
18,GGAUCUUCUCGAUCUAACAAAAAAGACAAAUCUGCCACAAAGCUUGAGACCAUUUUCGGAUGCAGAGGCGGCAGCCUUCGGUGGUGCGAUAGCGCCAACGUUCUCAACUAUGACACGCAAAACGUGUGCUCCGUUGAAUGGAGUUUAUCAUG,-4.17
19,GGAUCUUCUCGAUCUAACAAAAAAGACAAAUCUGCCACAAAGCUUGAGACCAUCUUCGGAUGCAGAGGCGGCAGCCUUCGGUGGCGUGAUAGCGCCAACGUUCUCAACUAUGACACGCAAAACGCGUGCUCCGUUGAAUGGAGUUUAUCCAG,≤ -4.2

row,Variant,polymerase ribozyme fitness (log ratio)
1,GGAUCUUCUCGAUCUAACAAAAAAGACAAAUCUGCCACAAAGCUUGAGACCAUCUUCGGAUGCAGAGGCGGCAGCUUUCGGUGGCGCGAUAGCGCCAACGUUCUCAACUAUGACACGCAAAACGCGUGCUCCGUUGAAUGGAGUUUAUCAUG,-1.88
2,GGAUCUUCUCGAUCUAACAAAAAAGACAAAUCUGCCACAAAGCUUGAGACCAUCUUCGGAUGCAGAGGCGGCAGCCUUCGGUGGCGCGAUAGGGCCAAUGUUCUCAACUAUGACACGCAAAACGCGUGCUCCGUUGAAUGGAGUUUAUCAUG,≤ -4.2
3,GGAUCUUCUCGAUCUAACAAAAAAGACAAAUCUGCCACAAAGCUUGAGACCAUCUUCGGAUGCAGAGGCGGCAGCCUUCGGUGGCGCGAUAGCGUCAACGUUCUCAACUAUGACACGCAAAACGCGUGCUCCGUUGAAUGGAGUUUAUCAUG,-3.47
4,GGAUCUUCUCGAUCUAACAAAAAAGACAAAUCUGCCACAAAGCUUGAGACCAUCUUCGGAUGCAGAGGCGGCAGCCUUCGGUGGCGCGAUAGCGCAAACGUUCUCAACUAUGACACGCAAAACGCGUGCUCCGUUGAAUGGAGUUUAUCAUG,-3.01
5,GGAUCUUCUCGAUCUAACAAAAAAGACAAAUCUGCCACAAAGCUUGAGACCAUCUUCGGAUGUAGAGGCGGCAGCCUUCGGCGGCGCGAUAGCGCCAACGUUCUCAACUAUGACUCGCAAAACGCGUGCUCCGUUGAAUGGAGUUAAUCAUG,-1.83
6,GGAUCUUCUCGAUCUAACAAAAAAGACAAAUCUGCCACAAAGCUUGAGACCAUCUUCGGAUGCAGAGGCGGCAGCCUUCGGUGGCGCGAUAGCGCUAACGUUCUCAACUAUGACACGCAAAACGCGUGCUCCGAUGAAUGGAGUUUAUCAUG,≤ -4.2
7,GGAUCUUCUCGAUCUAACAAAAAAGACAAAUCUGCCACAAAGCUUGAGACCAUCUUCGGAUGGAGAGGCGGCAGCCUUCGGUGGCGCGAUAGCCCCAACGUUAUCAACUAUGACACGCAAAACGCGUGCUCUGUUGAAUGGAGUUUAUCAUG,-4.08
8,GGAUCUUCUCGAUCUAACAAAAAAGACAAAUCUGCCACAAAGCUUGAGACCAUCUUCGGAUGCAGAGGCGGCAGCAUUCGGUUGCGCGAUAGCGCCAACGUUAUCAACUAUGACACGCAAAACGCGUGCUCGGUUGAAUGGAGUGUAUCAUG,≤ -4.2
9,GGAUCUUCUCGAUCUAACAAAAAAGACAAAUCUGCCACAAAGCUUGAGACCAUCUUCGGAUGCAGAGGCGGCAGCCUUCGGUGGUGCGAUAGCGCCAACGUUCUCAACUAUGACACGCAAAACGCGUGCUCCGUUGAAUGGAGUUUAUCAUG,-2.99
10,GGAUCUUCUCGAUCUAACAAAAAAGACAAAUCUGCCACAAAGCUUGAGACCAUCUUCGGAUGCAGAGGCGGCAGCCUUCGGUGGCGUGAUAGCGCCAACGUUGUCAACUAUGACACGCAAGAUGGGUGCUCCGUUGAAUGGAGUUUAUCAUG,≤ -4.2
11,GGAUCUUCUCGAUCUAACAAAAAAGACAAAUCUGCCACAAAGCUUGAGACCAUCUUCGGAUGCAGAGGCGGCAGCCUUCGGUGGCGCGAUAGUGCCAACGUUCGCAACUAUGACACGCAAAACGCGUGCUCCGUUUAAUGAAGUUUAUCAUG,≤ -4.2
12,GGAUCUUCUCGAUCUAACAAAAAAGACAAAUCUGCCACAAAGCUUGAGACCAUCUUCGGAUGCAGAGGAGGCAGUCUUCGGUGGCGCGAUAGCGCCAACGUUCUCAACUAUGACACGCAAAACGCGUGCUCCGUUGAAUGGAGUUUAUCAUG,≤ -4.2
13,GGAUCUUCUCGAUCUAACAAAAAAGACAAAUCUGCCACAAAGCUUGAGACCAUCUUCGGAUGCAGAGGCGGCAGCUUUCGGUGGUGCGAUAGCGCCAACGUUCUCAACUAUGACAGGCAAAACGCGUGCUCCGUUGAAUGGAGUUUAUCAUG,-2.09
14,GGAUCUUCUCGAUCUAACAAAAAAGACAAAUCUGCCACAAAGCUUGAGACCAUCUUAGGAUGCAGCGGCGGCAGCCUUCGGUGGGGCGAUAGCGCCAACGUUCUCAACUAUGACACGCAAAACGCGUGCUCCGUUGAAUGGAGUUUAUCAUG,≤ -4.2
15,GGAUCUUCUCGAUCUAACAAAAAAGACAAAUCUGCCACAAAGCUUGAGACCAUCUUCGGAUGCAGAGGCGGCAGCCUUCGGUGGCGGGAUAGCGCCAACGUUCUCAACUAUGAAGCGCAAAACGCGUGCUCCGUUGAAUGGAGUUUAUCAUG,≤ -4.2
16,GGAUCUUCUCGAUCUAACAAAAAAGACAAAUCUGCCACAAAGCUUGAGACCAUCUUCGGAUGCAGAGGCGGCAGCCUUCGGUGGCGCGAUAGUGCCAACGUUCUCAACUAUGACACGCAAAACGCGUGCUCCGUUGAAUGGAGUUUAUCAUG,-4.15
17,GGAUCUUCUCGAUCUAACAAAAAAGACAAAUCUGCCACAAAGCUUGAGACCAUCUUCGGAUGCAGAGGCGGCAGCCUUCGGUGGCGCGAUAGAGCCAACGUUCUCAACUAUGACACGCAAAACGCGUGCUCCGUUGAAUGGAGUUUAUCAUG,≤ -4.2
18,GGAUCUUCUCGAUCUAACAAAAAAGACAAAUCUGCCACAAAGCUUGAGACCAUCUUCGGAUGCAGAGGCGGCAGCCUUCGGUGGCGCGAUAGCGCCAACGUUAUCAACUAUGACACGCAAAACGCGUGCUCCGUUGAAUGGAGUUUAUUAUG,≤ -4.2
19,GGAUCUUCUCGAUCUAACAAAAAAGACAAAUCUGCCACAAAGCUUGAGACCAUCUUCGGAUGCAGAGGAGGCAGCCUUAGGGGGCGCGAGAGCGCCAACGUUCUCAGCUAUGACACGCAGAACGCGUGGUCCGUUGAAGGGAGUUUAUGAUG,≤ -4.2
